Results from patent publication US7838495B2, “Compositions and methods of use of EPB1, and ErbB3 binding protein” (University of Maryland, Baltimore, priority 2007, dated 2010).

How the values were obtained:
[1] = tested on: androgen-responsive genes; assay: Microarray gene expression profiling of LNCaP cells stably transfected with EBP1; assay type: cell-based, human; settings: EPB1-overexpressing LNCaP cells vs controls
Method: Microarray Analysis: First and second strand cDNA were synthesized from 5-15 μg of total RNA at Genome Explorations (Nashville, Tenn.) using the SuperScript Double-Stranded cDNA Synthesis Kit (Gibco Life Technologies, Gaithersburg, Md.) and an oligo-dT24-T7 (5′-GGCCAGTGAATTGTAATACGACTCACTATAGGGAGGCGG-3′) (SEQ ID NO: 3) primer according to the manufacturer's instructions. cRNA was synthesized labeled with biotinylated UTP and CTP by in vitro transcription using the T7 promoter-coupled, double-stranded cDNA as template and the T7 RNA Transcript Labeling Kit (ENZO Diagnostics Inc., Farmingdale, N.Y.). The fragmented cRNA was hybridized for U133A oligonucleotide arrays (Affymetrix, Santa Clara, Calif.) containing ˜33,000 full-length annotated genes, together with additional probe sets designed to represent EST sequences. The arrays were then stained with phycoerythrein-conjugated streptavidin (Molecular Probes, Eugene, Oreg.), and the fluorescence intensities were determined using a laser confocal scanner (Hewlett-Packard, Palo Alto, Calif.). The scanned images were analyzed using Microarray software (Affymetrix). Sample loading and variations in staining were standardized by scaling the average of the fluorescent intensities of all genes on an array to constant target intensity for all arrays used. The signal intensity for each gene was calculated as the average intensity difference, represented by [E(PM−MM)/(number of probe pairs)], where PM and MM denote perfect-match and mismatch probes. Data analysis was conducted using Microarray Suite 5.0 (Affymetrix) following user guidelines. Only genes with a minimum expression level of 500 were included in this analysis. […] AR-regulated genes include the Androgen Receptor (AR), PSA (kallikrein 3), Kallikrein 2, POV-1, TMPRSS2, and prostate-derived factor.
Ectopic expression of EPB1 downregulates androgen-regulated genes: Gene expression profiling of LNCaP cells stably transfected with EBP1 was used to determine the range of androgen-dependent genes affected by EPB1 overexpression. These cells overexpress EPB1 protein between two- and three-fold (Zhang et al., 2002, Repression of Androgen Receptor Mediated Transcription by the ErbB-3 Binding Protein EPB1, Oncogene, 21: 5609-5618). Changes in gene expression were measured using microarray analysis of 33,000 transcripts on the Affymetrix U133A chip. To compile a list of differentially regulated genes, only those genes that were activated or repressed at least 3-fold (p<0.05, 500 minimum expression units) were included. […] Forty-one genes were induced and 126 were repressed. Seventy-two of these genes have HUGO approved names. […] These include the Androgen Receptor (3.7 fold decrease), PSA (3.7 fold decrease) as previously reported (Zhang et al., 2002, Repression of Androgen Receptor Mediated Transcription by the ErbB-3 Binding Protein EPB1, Oncogene, 21: 5609-5618), Kallikrein 2 (3.2 fold decrease), POV-1 (5.0 fold decrease), TMPRSS2 (3.2 fold decrease), and prostate-derived factor (3.2 fold decrease). The Kallikrein 2 gene is regulated by AR, predominantly expressed in prostate tissue, secreted by LNCaP cells, and 78% homologous to PSA. […] The TMPRSS2 gene is androgen-regulated and also highly expressed in prostate and prostate cancer (Afar et al., 2001, Catalytic Cleavage of the Androgen-Regulated TMPRSS2 Protease Results in its Secretion by Prostate and Prostate Cancer Epithelia, Cancer Res., 61:1686-1692).

AU565 cells = assay: Western blot of ErbB2 in AU565 EBP1 transfectants; assay type: cell-based, human
Method: FIG. 10A-C. Effect of ectopic expression of EBP1 on ErbB3 or ErbB2 protein levels. (A and B) Lysates of logarithmically growing MCF-7 vector control cells (CMV) or EBP1 transfected cells (Ebp1) or (C) AU565 cells were blotted with antibodies for ErbB3 or ErbB2 and actin as indicated. Data are representative of three experiments.
2.5. Western blot analysis. Total cell extracts were prepared by direct lysis of cells with lysis buffer [50 mM Tris-HCl (pH 7.4), 1 mM EDTA, 250 mM NaCl, 1% Triton X-100, 0.5 mM DTT, and 1× Complete™ protease inhibitor]. Protein concentrations were measured using a detergent compatible kit (Bio-Rad). Proteins (30 lg per well) were resolved by SDS-PAGE, transferred to PVDF membranes, and immunoblotted as described. […] Images were quantified using IMAGE-J software (NIH). […] Relative cell numbers were determined 4 days later using a Promega Proliferation Reagent as per manufacturer's instructions with absorbance being read at 490 nm using a Dynex plate reader. […] Data were analyzed using a two-tailed Students t-test and a p <0.05 was deemed statistically significant. […]

B1: EBP1: ErbB3 binding protein (SEQ ID NO: 2), AR corepressor, here ectopically expressed in cancer cells by stable transfection of an expression plasmid (protein, listed as Homo sapiens)
chain: MSGEDEQQEQTIAEDLVVTKYKMGGDIANRVLRSLVEASSSGVSVLSLCEKGDAMIMEETGKIFKKEKEMKKGIAFPTSISVNNCVCHFSPLKSDQDYILKEGDLVKIDLGVHVDGFIANVAHTFVVDVAQGTQVTGRKADVIKAAHLCAEAALRLVKPGNQNTQVTEAWNKVAHSFNCTPIEGMLSHQLKQHVIDGEKTIIQNPTDQQKKDHEKAEFEVHEVYAVDVLVSSGEGKAKDAGQRTTIYKRDPSKQYGLKMKTSRAFFSEVERRFDAMPFTLRAFEDEKKARMGVVECAKHELLQPFNVLYEKEGEFVAQFKFTVLLMPNGPMRITSGPFEPDLYKSEMEVQDAELKALLQSSASRKTQKKKKKKASKTAENATSGETLEENEAGD
modifications: FLAG tag
- Androgen Receptor expression, fold decrease [1]: 3.7 fold
- Kallikrein 2 expression, fold decrease [1]: 3.2 fold
- POV-1 expression, fold decrease [1]: 5.0 fold
- PSA expression, fold decrease [1]: 3.7 fold
- TMPRSS2 expression, fold decrease [1]: 3.2 fold
- prostate-derived factor expression, fold decrease [1]: 3.2 fold
- decrease of ErbB2 protein (AU565 cells): 57%
